Reference: the supplement of paper PMC11316812
± gives the standard deviation of the averaged measurements.

What was measured:
hTERT-HMEC = test: percentage of EdU-negative (G0-arrested) nuclei per well, 72 h; higher = more G0 arrest; details: reference: sequence is the full UniProt precursor, the tested protein was the secreted form or ectodomain
MCF7 = test: as above; details: reference: sequence is the full UniProt precursor, the tested protein was the secreted form or ectodomain
[1] = protein concentration 0.010165 µM
[2] = protein concentration 0.10165 µM
[3] = protein concentration 0.0173625 µM
[4] = protein concentration 0.173625 µM
[5] = protein concentration 0.0257143 µM
[6] = protein concentration 0.257143 µM
[7] = protein concentration 0.03125 µM
[8] = protein concentration 0.3125 µM
[9] = protein concentration 0.0225 µM
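Further: secreted proteins added to cultured cells, EdU pulse at the end, nuclei found by Hoechst imaging, EdU status from nuclear versus surrounding ring intensity ratio, PBS as neutral control.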

For “MLGARLRLWVCALCSVCSMSVLRAYPNASPLLGSSWGGLIHLYTATARNSYHLQIHKNGHVDGAPHQTIYSALMIRSEDAGFVVITGVMSRRYLCMDFRGNIFGSHYFDPENCRFQHQTLENGYDVYHSPQYHFLVSLGRAKRAFLPGMNPPPYSQFLSRRNEIPLIHFNTPIPRRHTRSAEDDSERDPLNVLKPRARMTPAPASCSQELPSAEDNSPMASDPLGVVRGGRVNTHAGGTGPEGCRPFAKFI [Q9GZV9]”, the “percentage of EdU-negative” value (hTERT-HMEC; [1]) was 4.81 ± 0.08%, the “percentage of EdU-negative” value (hTERT-HMEC; [2]) was 12.96 ± 0.081% and the “percentage of EdU-negative” value (MCF7; [1]) was 24 ± 0.7%. The “percentage of EdU-negative” value (MCF7; [2]) was 27.2 ± 0.45%.
With “MHLIDYLLLLLVGLLALSHGQLHVEHDGESCSNSSHQQILETGEGSPSLKIAPANADFAFRFYYLIASETPGKNIFFSPLSISAAYAMLSLGACSHSRSQILEGLGFNLTELSESDVHRGFQHLLHTLNLPGHGLETRVGSALFLSHNLKFLAKFLNDTMAVYEAKLFHTNFYDTVGTIQLINDHVKKETRGKIVDLVSELKKDVLMVLVNYIYFKALWEKPFISSRTTPKDFYVDENTTVRVPMMLQDQEHHWYLHDRYLPCSVLRMDYKGDATVFFILPNQGKMREIEEVLTPEMLMRWNNLLRKRNFYKKLELHLPKFSISGSYVLDQILPRLGFTDLFSKWADLSGITKQQKLEASKSFHKATLDVDEAGTEAAAATSFAIKFFSAQTNRHILRFNRPFLVVIFSTSTQSVLFLGKVVDPTKP” the “percentage of EdU-negative” value (hTERT-HMEC; protein concentration 0.022 µM) was 4.571 ± 0.028%, the “percentage of EdU-negative” value (hTERT-HMEC; protein concentration 0.22 µM) was 4.09 ± 0.62% and the “percentage of EdU-negative” value (MCF7; protein concentration 0.022 µM) was 25 ± 1.3%. For the same sequence, the “percentage of EdU-negative” value (MCF7; protein concentration 0.22 µM) was 28.9 ± 0.99%.
“MKLCSLAVLVPIVLFCEQHVFAFQSGQVLAALPRTSRQVQVLQNLTTTYEIVLWQPVTADLIVKKKQVHFFVNASDVDNVKAHLNVSGIPCSVLLADVEDLIQQQISNDTVSPRASASYYEQYHSLNEIYSWIEFITERHPDMLTKIHIGSSFEKYPLYVLKVSGKEQAAKNAIWIDCGIHAREWISPAFCLWFIGHITQFYGIIGQYTNLLRLVDFYVMPVVNVDGYDYSWKKNRMWRKNRSFYANNHCIGTDLNRNFASKHWCEEGASSSSCSETYCGLYPESEPEVKAVASFLRRNINQIKAYISMHSYSQHIVFPYSYTRSKSKDHEELSLVASEAVRAIEKISKNTRYTHGHGSETLYLAPGGGDDWIYDLGIKYSFTIELRDTGTYGFLLPERYIKPTCREAFAAVSKIAWHVIRNV [Q96IY4]” was tested, and the “percentage of EdU-negative” value (hTERT-HMEC; [3]) was 5.24 ± 0.032%, the “percentage of EdU-negative” value (hTERT-HMEC; [4]) was 5.84 ± 0.41% and the “percentage of EdU-negative” value (MCF7; [3]) was 24.7 ± 2.5%. The “percentage of EdU-negative” value (MCF7; [4]) was 26.8 ± 0.93%.
For “MHLLLFQLLVLLPLGKTTRHQDGRQNQSSLSPVLLPRNQRELPTGNHEEAEEKPDLFVAVPHLVATSPAGEGQRQREKMLSRFGRFWKKPEREMHPSRDSDSEPFPPGTQSLIQPIDGMKMEKSPLREEAKKFWHHFMFRKTPASQGVILPIKSHEVHWETCRTVPFSQTITHEGCEKVVVQNNLCFGKCGSVHFPGAAQHSHTSCSHCLPAKFTTMHLPLNCTELSSVIKVVMLVEECQCKVKTEHEDGHILHAGSQDSFIPGVSA”, the “percentage of EdU-negative” value (hTERT-HMEC; [5]) was 4.67 ± 0.26%, the “percentage of EdU-negative” value (hTERT-HMEC; [6]) was 5.44 ± 1.3% and the “percentage of EdU-negative” value (MCF7; [5]) was 23.4 ± 3.4%. The “percentage of EdU-negative” value (MCF7; [6]) was 24.2 ± 0.59%.
With “MTCKMSQLERNIETIINTFHQYSVKLGHPDTLNQGEFKELVRKDLQNFLKKENKNEKVIEHIMEDLDTNADKQLSFEEFIMLMARLTWASHEKMHEGDEGPGHHHKPGLGEGTP” the “percentage of EdU-negative” value (hTERT-HMEC; [7]) was 5.56 ± 0.9%, the “percentage of EdU-negative” value (hTERT-HMEC; [8]) was 5.25 ± 0.34% and the “percentage of EdU-negative” value (MCF7; [7]) was 26 ± 1.1%. For the same sequence, the “percentage of EdU-negative” value (MCF7; [8]) was 24.6 ± 0.91%.
For “MVATKTFALLLLSLFLAVGLGEKKEGHFSALPSLPVGSHAKVSSPQPRGPRYAEGTFISDYSIAMDKIHQQDFVNWLLAQKGKKNDWKHNITQREARALELASQANRKEEEAVEPQSSPAKNPSDEDLLRDLLIQELLACLLDQTNLCRLRSR”, the “percentage of EdU-negative” value (hTERT-HMEC; [9]) was 4.89 ± 0.063%, the “percentage of EdU-negative” value (hTERT-HMEC; protein concentration 0.225 µM) was 6.12 ± 0.68% and the “percentage of EdU-negative” value (MCF7; [9]) was 26.1 ± 1.5%. The “percentage of EdU-negative” value (MCF7; protein concentration 0.225 µM) was 24.3 ± 2.4%.
With “MFHVSFRYIFGLPPLILVLLPVASSDCDIEGKDGKQYESVLMVSIDQLLDSMKEIGSNCLNNEFNFFKRHICDANKEGMFLFRAARKLRQFLKMNSTGDFDLHLLKVSEGTTILLNCTGQVKGRKPAALGEAQPTKSLEENKSLKEQKKLNDLCFLKRLLQEIKTCWNKILMGTKEH” the “percentage of EdU-negative” value (hTERT-HMEC; [9]) was 5.22 ± 1%, the “percentage of EdU-negative” value (hTERT-HMEC; [7]) was 5.03 ± 1.4% and the “percentage of EdU-negative” value (hTERT-HMEC; protein concentration 0.225 µM) was 6.63 ± 0.069%. For the same sequence, the “percentage of EdU-negative” value (hTERT-HMEC; [8]) was 4.47 ± 0.49%, the “percentage of EdU-negative” value (MCF7; [9]) was 27.6 ± 3.5% and the “percentage of EdU-negative” value (MCF7; [7]) was 26 ± 0.34%. The “percentage of EdU-negative” value (MCF7; protein concentration 0.225 µM) was 25.3 ± 1.1% and the “percentage of EdU-negative” value (MCF7; [8]) was 25.9 ± 0.41%.
With “MRLLCGLWLWLSLLKVLQAQTPTPLPLPPPMQSFQGNQFQGEWFVLGLAGNSFRPEHRALLNAFTATFELSDDGRFEVWNAMTRGQHCDTWSYVLIPAAQPGQFTVDHGVEPGADREETRVVDSDYTQFALMLSRRHTSRLAVLRISLLGRSWLLPPGTLDQFICLGRAQGLSDDNIVFPDVTGWSPQASVC [Q6JVE5]” the “percentage of EdU-negative” value (hTERT-HMEC; [9]) was 4.84 ± 0.32%, the “percentage of EdU-negative” value (hTERT-HMEC; protein concentration 0.225 µM) was 5.1 ± 0.82% and the “percentage of EdU-negative” value (MCF7; [9]) was 28.3 ± 4%. The “percentage of EdU-negative” value (MCF7; protein concentration 0.225 µM) was 32.23 ± 0.31%.
